Test results published in patent publication US20160067316A1, “Selective Sensitization of Cancer Cells to, and Selective Protection of Non-Cancer Cells from Genotoxic Therapies” (Board of Supervisors of Louisiana State University and …, priority 2014, published 2016).

Key:
histone H3 [1] = biological target: histone H3
histone H3 [2] = biological target: histone H3 (Homo sapiens, UniProt P68431); assay: Kinase activity by histone H3 Ser10 phosphorylation (immunoblot); assay type: biochemical; conditions: in vitro, kinase buffer at 30° C; data not shown
Protocol: In the next attempt, the MS was inserted 5′ to the kinase domain of TLK1B. The recombinant TAT-TL-MS-K protein was produced, purified, and the activity of the protein was analyzed in vitro. […] Activity of the TAT-TL-MS-K was monitored indirectly by evaluation of histone H3 Seri 0 phosphorylation. Recombinant TAT-TLK1B or TAT-TL-MS-K was reacted with histone H3 at ratios of 1:10, 1:5, or 1:1 in a kinase buffer at 30° C. Reactions were loaded onto SDS-PAGE gels, and immunoblotted against anti-Ser10 H3 (Millipore). […] The functional, MMP-sensitive TAT-TL-MS-K will be used to confirm transduction in normal and cancer cells, and the ability of TAT-TL-MS-K to sensitize cancer cells such as head and neck cancer cells to radiation.

MT1-MMP catalytic domain = biological target: T1, MT1-MMP catalytic domain (Homo sapiens, UniProt P50281); assay: In vitro cleavage by MT1-MMP catalytic domain (anti-His immunoblot); assay type: biochemical; conditions: for sensitivity to MT1-MMP cleavage: incubated with recombinant MT1-MMP catalytic enzyme
T1 construct: reacted with the MT1-MMP catalytic domain (EMD Millipore) at 22° C; purchased Calbiochem / EMD Millipore
Protocol: FIG. 3 depicts anti-His immunoblotting of TAT-TLK1B or TAT-MS-TLK1B, reacted with the MT1-MMP catalytic domain (EMD Millipore) at 22° C., as a function of time. 1.5 μg TAT-TLK1B, TAT-MS-TLK1B or TAT-TL-MS-K was reacted with 0.02 mU MT1-MMP, catalytic domain (Calbiochem) in reaction buffer containing 50 mM Tris pH 7.5, 150 mM NaCl, 5 mM CaCl2. The reactions were incubated at 22° C. for the indicated times (10, 20, 30, 60, or 120 minutes). […] Although MT1-MMP has a preference for the preferred cleavage site motif, that preference is neither strict nor absolute. Thus other proteins will be cleaved as well; what is important is the relative sensitivity of MS-containing proteins to MT1-MMP cleavage.

rat salivary glands = conditions: delivered directly to rat salivary glands; preclinical, Sunavala-Dossabhoy 2012; cited from earlier work
[3] = test system: HNSCC cells (cell line SCC40); assay: Protein transduction into SCC40 cells (anti-hemagglutinin immunoblot); assay type: cell-based; conditions: 40 μg protein, 6 hours after protein transduction
Protocol: HNSCC cells (cell line SCC40) were cultured on rat tail type I collagen plates in DMEM/0.1% BSA for 3 days before addition of 40 μg TAT-TLK1B or TAT-MS-TLK1B. Control cells (Untreated cells, Untx) were treated with an equal volume of OPTI-MEM™ reduced serum medium—a modification of Eagle's Minimum Essential Media, buffered with HEPES and sodium bicarbonate, and supplemented with hypoxanthine, thymidine, sodium pyruvate, L-glutamine, trace elements, and growth factors. FIG. 4A depicts the results of immunoblotting the respective cell lysates with anti-(MT1-MMP catalytic domain) antibody (Millipore). The arrow at 68 kD corresponds to pro-MT1-MMP. […] The 52 kD and 55 kD proteins were products of autocatalytic cleavage of MT1-MMP. […] Active MT1-MMP is membrane-bound, and is responsible for cleaving and activating pro-MMP-2 to active MMP-2. Active MT1-MMP can also undergo autocatalytic processing. The presence of a substrate such as TAT-MS-TLK1B or TAT-TL-MS-K will decrease the MT1-MMP autocatalysis. […] In other words, the observed decrease in MT1-MMP auto-cleavage is indirect evidence that the recombinant TAT-MS-fusion protein is being cleaved as designed.
FIG. 4B depicts results of immunoblotting the respective cell lysates with horseradish peroxidase-conjugated anti-hemagglutinin (Sigma) 6 hours after protein transduction. […]

MT1-MMP expressed by HNSCC cell line SCC40
MT1-MMP autoproteolytic products (52 kD and 55 kD) in SCC40 lysates, immunoblot (TAT-MS-TLK1B): The autoproteolytic products declined sharply in the presence of the TAT-MS-TLK1B

B1: TAT-TLK-MS fusion protein (protein)
chain: MHHHHHHSSGLVPRGSGMKETAAAKFERQHMDSPDLGTDDDDKAMAISDPNSSSVDKLGYGRKKRRQRRRGGSTMSGYPYDVPDYAGSMVKLAALESNKIQDLEKKEGRIDDLLRANCDLRRQIDEQQKLLEKYKERLNKCISMSKKLLIEKSTQEKLSSREKSMQDRLRLGHFTTVRHGASFTEQWTDGFAFQNLVKQQEWVNQQREDIERQRKLLAKRKPPTANNSQAPSTNSEPKQRKNKAVNGAENDPFVRPNLPQLLTLAEYHEQEEIFKLRLGHLKKEEAEIQAELERLERVRNLHIRELKRINNEDNSQFKDHPTLNERYLLLHLLGRGGFSEVYKAFDLYEQRYAAVKIHQLNKSWRDEKKENYHKHACREYRIHKELDHPRIVKLYDYFSLDTDTFCTVLEYCEGNDLDFYLKQHKLMSEKEARSIVMQIVNALRYLNEIKPPIIHYDLKPGNILLVDGTACGEIKITDFGLSKIMDDDSYGVDGMDLTSQGAGTYWYLPPECFVVGKEPPKISNKVDVWSVGVIFFQCLYGRKPFGHNQSQQDILQENTILKATEVQFPVKGSVPLSLRSGTPVVSSEAKAFIRRCLAYRKEDRFDVHQLANDPYLLPHMRRSNSSGNLHMAGLTASPTPPSSSIITY
phosphorylation of histone H3 Ser-10 (kinase activity) (histone H3 [1]): would not phosphorylate the TLK substrate, histone H3 Ser-10

B2: TAT-TL-MS-K fusion protein (protein)
chain: MHHHHHHSSGLVPRGSGMKETAAAKFERQHMDSPDLGTDDDDKAMAISDPNSSSVDKLGYGRKKRRQRRRGGSTMGGYPYDVPDYAGSMLKLAALESNKIQDLEKKEGRIDDLLRANCDLRRQIDEQQKLLEKYKERLNKCISMSKKLLIEKSTQEKLSSREKSMQDRLRLGHFTTVRHGASFTEQWTDGFAFQNLVKQQEWVNQQREDIERQRKLLAKRKPPTANNSQAPSTNSEPKQRKNKAVNGAENDPFVRPNLPQLLTLAEYHEQEEIFKLRLGHLKKEEAEIQAELERLERVRNLHIRELKRINNEDNSQFKAAAVPLSLRSGTSDHPTLNERYLLLHLLGRGGFSEVYKAFDLYEQRYAAVKIHQLNKSWRDEKKENYHKHACREYRIHKELDHPRIVKLYDYFSLDTDTFCTVLEYCEGNDLDFYLKQHKLMSEKEARSIVMQIVNALRYLNEIKPPIIHYDLKPGNILLVDGTACGEIKITDFGLSKIMDDDSYGVDGMDLTSQGAGTYWYLPPECFVVGKEPPKISNKVDVWSVGVIFFQCLYGRKPFGHNQSQQDILQENTILKATEVQFPVKPVVSSEAKAFIRRCLAYRKEDRFDVHQLANDPYLLPHMRRSNSSGNLHMAGLTASPTPPSSSIITY
phosphorylation of histone H3 Ser10, immunoblot with anti-Ser10 H3 (histone H3 [1]): TAT-TL-MS-K retained the native kinase activity, as indicated by phosphorylation of histone H3 (data not shown)

B3: TAT-TL-MS-K: SEQ ID NO: 4, fusion protein with MT1-MMP cleavage site inserted 5′ to the kinase domain of TLK1B (protein)
chain: B2 chain
modifications: TAT-TL-MS-K fusion protein
kinase activity (phosphorylation of histone H3 Ser-10) (histone H3 [2]): retained the native kinase activity | sensitivity to MT1-MMP cleavage (MT1-MMP catalytic domain): more sensitive to MT1-MMP cleavage than was TAT-TLK1B

B4: TAT-TLK1B: SEQ ID NO: 2, TAT-TLK1B fusion protein without the MS cleavage site (protein)
chain: MHHHHHHSSGLVPRGSGMKETAAAKFERQHMDSPDLGTDDDDKAMAISDPNSSSVDKLGYGRKKRRQRRRGGSTMSGYPYDVPDYAGSMVKLAALESNKIQDLEKKEGRIDDLLRANCDLRRQIDEQQKLLEKYKERLNKCISMSKKLLIEKSTQEKLSSREKSMQDRLRLGHFTTVRHGASFTEQWTDGFAFQNLVKQQEWVNQQREDIERQRKLLAKRKPPTANNSQAPSTNSEPKQRKNKAVNGAENDPFVRPNLPQLLTLAEYHEQEEIFKLRLGHLKKEEAEIQAELERLERVRNLHIRELKRINNEDNSQFKDHPTLNERYLLLHLLGRGGFSEVYKAFDLYEQRYAAVKIHQLNKSWRDEKKENYHKHACREYRIHKELDHPRIVKLYDYFSLDTDTFCTVLEYCEGNDLDFYLKQHKLMSEKEARSIVMQIVNALRYLNEIKPPIIHYDLKPGNILLVDGTACGEIKITDFGLSKIMDDDSYGVDGMDLTSQGAGTYWYLPPECFVVGKEPPKISNKVDVWSVGVIFFQCLYGRKPFGHNQSQQDILQENTILKATEVQFPVKPVVSSEAKAFIRRCLAYRKEDRFDVHQLANDPYLLPHMRRSNSSGNLHMAGLTASPTPPSSSIITY
modifications: TAT-TLK1B fusion protein
radiation-induced xerostomia (rat salivary glands): mitigate radiation-induced xerostomia | transduction into SCC40 cancer cells [3]: efficiently transduced | cleavage by MT1-MMP catalytic domain after 120 minutes (MT1-MMP catalytic domain; 1.5 μg protein, 0.02 mU MT1-MMP, 22° C, 120 minutes): still showed substantial activity | sensitivity to MT1-MMP cleavage (MT1-MMP catalytic domain): also cleaved by the enzyme, although not as rapidly

B5: TAT-TLK-MS: SEQ ID NO: 3, fusion protein with MT1-MMP cleavage site in a presumptive loop towards the carboxy terminus (protein)
chain: B1 chain
modifications: TAT-TLK-MS fusion protein
kinase activity (phosphorylation of histone H3 Ser-10) (histone H3 [2]): would not phosphorylate the TLK substrate | sensitivity to MT1-MMP cleavage (MT1-MMP catalytic domain): sensitive to cleavage
